Laboratory results from IntAct's records for PubMed 18930710.

B1: Ras-related protein Rap-2a (Homo sapiens), P10114 (parent)
chain: MREYKVVVLGSGGVGKSALTVQFVTGTFIEKYDPTIEDFYRKEIEVDSSPSVLEILDTAGTEQFASMRDLYIKNGQGFILVYSLVNQQSFQDIKPMRDQIIRVKRYEKVPVILVGNKVDLESEREVSSSEGRALAEEWGCPFMETSAKSKTMVDELFAEIVRQMNYAAQPDKDDPCCSACNIQ

Variants of: B1
Conditions: with mink1_human MINK1, Q8N4C8
Chain of mink1_human MINK1, Q8N4C8 (Q8N4C8 whole entry, looked up): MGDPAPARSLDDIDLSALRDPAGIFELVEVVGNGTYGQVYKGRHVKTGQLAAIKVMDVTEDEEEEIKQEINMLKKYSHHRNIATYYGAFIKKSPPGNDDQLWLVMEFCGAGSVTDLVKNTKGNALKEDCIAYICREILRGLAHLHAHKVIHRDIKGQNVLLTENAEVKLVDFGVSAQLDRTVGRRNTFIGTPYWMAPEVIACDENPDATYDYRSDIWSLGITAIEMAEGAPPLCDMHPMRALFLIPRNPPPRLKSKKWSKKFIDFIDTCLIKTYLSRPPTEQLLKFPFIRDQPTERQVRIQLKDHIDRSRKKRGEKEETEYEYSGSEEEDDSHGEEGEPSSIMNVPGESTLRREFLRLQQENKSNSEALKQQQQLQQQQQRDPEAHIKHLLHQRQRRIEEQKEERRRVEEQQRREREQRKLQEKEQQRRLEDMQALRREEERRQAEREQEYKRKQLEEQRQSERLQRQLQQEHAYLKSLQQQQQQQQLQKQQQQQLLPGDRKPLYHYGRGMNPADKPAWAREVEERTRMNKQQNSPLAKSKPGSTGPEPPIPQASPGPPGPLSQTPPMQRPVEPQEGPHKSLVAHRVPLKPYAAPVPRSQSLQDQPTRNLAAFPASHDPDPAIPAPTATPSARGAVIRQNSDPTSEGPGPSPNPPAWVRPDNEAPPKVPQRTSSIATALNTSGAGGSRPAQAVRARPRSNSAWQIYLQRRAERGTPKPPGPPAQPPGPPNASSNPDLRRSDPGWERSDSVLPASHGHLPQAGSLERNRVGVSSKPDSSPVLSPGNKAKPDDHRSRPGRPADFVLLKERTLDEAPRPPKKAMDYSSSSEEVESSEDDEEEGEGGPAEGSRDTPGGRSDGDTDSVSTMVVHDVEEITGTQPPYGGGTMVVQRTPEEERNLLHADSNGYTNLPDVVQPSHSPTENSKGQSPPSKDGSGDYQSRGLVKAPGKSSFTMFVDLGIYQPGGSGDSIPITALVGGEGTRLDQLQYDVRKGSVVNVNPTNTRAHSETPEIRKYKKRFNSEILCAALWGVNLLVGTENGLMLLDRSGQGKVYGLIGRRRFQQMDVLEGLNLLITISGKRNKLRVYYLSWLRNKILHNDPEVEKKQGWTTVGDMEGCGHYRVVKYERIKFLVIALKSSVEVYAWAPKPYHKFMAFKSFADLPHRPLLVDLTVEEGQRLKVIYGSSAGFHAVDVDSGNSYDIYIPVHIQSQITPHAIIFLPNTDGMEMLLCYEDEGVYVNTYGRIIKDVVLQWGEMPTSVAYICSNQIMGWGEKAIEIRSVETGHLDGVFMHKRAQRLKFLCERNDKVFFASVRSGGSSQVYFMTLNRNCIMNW

Variant	effect of a mutation on the interaction
MREYKVVVLGSGGVGKSALTVQFVTGTFIEKYDPTIEDSYRKEIEVDSSPSVLEILDTAGTEQFASMRDLYIKNGQGFILVYSLVNQQSFQDIKPMRDQIIRVKRYEKVPVILVGNKVDLESEREVSSSEGRALAEEWGCPFMETSAKSKTMVDELFAEIVRQMNYAAQPDKDDPCCSACNIQ [F39S]	disrupting interaction
MREYKVVVLGSGGVGKNALTVQFVTGTFIEKYDPTIEDFYRKEIEVDSSPSVLEILDTAGTEQFASMRDLYIKNGQGFILVYSLVNQQSFQDIKPMRDQIIRVKRYEKVPVILVGNKVDLESEREVSSSEGRALAEEWGCPFMETSAKSKTMVDELFAEIVRQMNYAAQPDKDDPCCSACNIQ [S17N]	disrupting interaction

Variants of: B1
Conditions: with mink1_mouse Mink1, Q9JM52
Chain of mink1_mouse Mink1, Q9JM52 (Q9JM52 whole entry): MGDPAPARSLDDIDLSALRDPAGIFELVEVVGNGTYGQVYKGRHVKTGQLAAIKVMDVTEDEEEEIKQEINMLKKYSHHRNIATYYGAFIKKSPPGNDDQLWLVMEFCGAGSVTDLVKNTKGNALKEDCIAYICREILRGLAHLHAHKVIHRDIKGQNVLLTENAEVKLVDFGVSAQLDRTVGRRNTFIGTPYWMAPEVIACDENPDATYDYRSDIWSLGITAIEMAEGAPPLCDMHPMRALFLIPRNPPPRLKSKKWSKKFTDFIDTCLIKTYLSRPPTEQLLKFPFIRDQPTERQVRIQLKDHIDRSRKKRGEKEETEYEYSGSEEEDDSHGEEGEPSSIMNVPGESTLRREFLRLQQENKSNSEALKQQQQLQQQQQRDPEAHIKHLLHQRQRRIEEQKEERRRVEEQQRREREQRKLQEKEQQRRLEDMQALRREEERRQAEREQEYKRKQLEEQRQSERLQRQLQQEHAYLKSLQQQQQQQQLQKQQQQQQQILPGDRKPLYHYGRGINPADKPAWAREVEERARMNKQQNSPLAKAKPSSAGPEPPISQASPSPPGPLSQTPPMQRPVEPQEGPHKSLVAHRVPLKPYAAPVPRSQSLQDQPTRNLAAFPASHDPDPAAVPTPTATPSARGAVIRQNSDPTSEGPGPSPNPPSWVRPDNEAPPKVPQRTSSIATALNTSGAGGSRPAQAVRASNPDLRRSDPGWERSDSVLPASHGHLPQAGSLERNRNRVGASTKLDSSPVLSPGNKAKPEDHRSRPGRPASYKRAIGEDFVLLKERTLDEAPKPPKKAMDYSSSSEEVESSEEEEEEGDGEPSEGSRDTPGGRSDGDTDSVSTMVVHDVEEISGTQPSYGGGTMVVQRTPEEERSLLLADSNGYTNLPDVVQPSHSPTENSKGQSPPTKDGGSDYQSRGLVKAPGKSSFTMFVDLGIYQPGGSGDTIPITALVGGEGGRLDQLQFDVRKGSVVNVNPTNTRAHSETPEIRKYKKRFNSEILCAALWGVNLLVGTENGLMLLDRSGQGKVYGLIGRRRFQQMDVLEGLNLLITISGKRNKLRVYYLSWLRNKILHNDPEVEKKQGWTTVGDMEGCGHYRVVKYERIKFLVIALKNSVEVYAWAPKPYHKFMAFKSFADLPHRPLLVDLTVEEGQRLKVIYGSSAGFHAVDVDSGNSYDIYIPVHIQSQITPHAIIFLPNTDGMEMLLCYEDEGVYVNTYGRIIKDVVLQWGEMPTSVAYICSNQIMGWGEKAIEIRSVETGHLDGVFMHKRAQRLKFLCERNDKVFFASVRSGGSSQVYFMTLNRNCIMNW

Variant	effect of a mutation on the interaction
MREYKVVVLGSGGVGKSALTVQFVTGTFIEKYDPTIEDSYRKEIEVDSSPSVLEILDTAGTEQFASMRDLYIKNGQGFILVYSLVNQQSFQDIKPMRDQIIRVKRYEKVPVILVGNKVDLESEREVSSSEGRALAEEWGCPFMETSAKSKTMVDELFAEIVRQMNYAAQPDKDDPCCSACNIQ [F39S]	decreasing interaction
